Measurements reported in patent US20130272958A1 (NATIONAL RESEARCH COUNCIL OF CANADA, published 2013).

T1: native CEACAM6 expressed by human tumor cells (BxPC3, LS174T, A549) (human, UniProt P40199 35-320)
T1 sequence: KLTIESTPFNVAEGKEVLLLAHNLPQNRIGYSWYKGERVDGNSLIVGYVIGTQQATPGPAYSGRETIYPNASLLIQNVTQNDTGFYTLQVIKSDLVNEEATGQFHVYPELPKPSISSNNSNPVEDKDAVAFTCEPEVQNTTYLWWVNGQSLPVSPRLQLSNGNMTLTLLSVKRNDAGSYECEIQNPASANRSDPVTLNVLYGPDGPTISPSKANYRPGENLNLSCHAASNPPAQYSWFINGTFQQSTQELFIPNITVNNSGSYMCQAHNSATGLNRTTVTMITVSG

T2: CEACAM6 peptide HNLPQNRIGYSWYKG
T2 construct: Spot on a JPT peptide array (45 peptides, 15 residues long, 10 overlapping)
T2 peptide: HNLPQNRIGYSWYKG

T3: CEACAM6 peptide NRIGYSWYKGERVDG
T3 construct: Spot on a JPT peptide array (45 peptides, 15 residues long, 10 overlapping)
T3 peptide: NRIGYSWYKGERVDG

T4: recombinant CEACAM6 N-terminal domain (expressed in E. coli) (Homo sapiens (Human), UniProt P40199 35-142, limits assumed)
T4 construct: also called CEACAM6 N-domain; recombinant CEACAM6 protein (N-domain)
T4 sequence: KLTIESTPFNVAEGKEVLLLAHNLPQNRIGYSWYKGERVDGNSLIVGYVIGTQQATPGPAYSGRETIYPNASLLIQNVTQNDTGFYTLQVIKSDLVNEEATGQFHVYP


Columns and labels:
[1] = biological target: recombinant CEACAM6 N-terminal domain (expressed in E. coli) (Homo sapiens (Human)) (UniProt P40199); experiment: SPR (Biacore 3000), 9A6 immobilised, CEACAM6 recombinant protein injected at 0.1-200 nM
[2] = biological target: T1, native CEACAM6 expressed by human tumor …; experiment: cell-based or functional assay
[3] = biological target: T2, CEACAM6 peptide HNLPQNRIGYSWYKG; experiment: peptide array membrane, anti-llama detection
[4] = biological target: T3, CEACAM6 peptide NRIGYSWYKGERVDG; experiment: peptide array membrane, anti-llama detection
[5] = biological target: T4, recombinant CEACAM6 N-terminal domain …; experiment: SPR (Biacore 3000), CEACAM6 immobilised, 2A3 injected at 1-60 nM, 1:1 Langmuir fit
Procedure: Immobilizations were performed with an amine-coupling kit (GE Healthcare) and carried out at 50 μg/ml CEACAM6 in 10 mM Acetate, pH 4 (GE Healthcare) and 50 μg/ml of Ovalbumin in 10 mM Acetate, pH 4.5. 120 μL of the sdAb at concentration of 1 nM to 60 nM were injected over the surfaces at a flow rate of 40 μl/min. Analyses were carried out at room temperature in HBS-EP, 10 mM HEPES pH 7.4, 150 mM NaCl, 3 mM EDTA and 0.005% surfactant P20 (GE Healthcare). Regeneration was performed with running buffer (HBS-EP). Data were analyzed with BIAevaluation software 4.1.

[6] = biological target: T4, recombinant CEACAM6 N-terminal domain …; experiment: SPR (Biacore 3000), 2A3-Fc immobilised, CEACAM6 recombinant protein injected at 0.1-200 nM
Procedure: One hundred twenty microliters of CEACAM6 recombinant protein at concentration of 0.1 nM to 200 nM was injected over the surfaces at a flow rate of 40 μl min-1. Analyses were carried out at room temperature in HBS-EP comprising 10 mM HEPES pH 7.4, 150 mM NaCl, 3 mM EDTA and 0.005% surfactant P20 (GE Healthcare). Regeneration was performed with HBS-EP used as running buffer. The data were analyzed by using BIAevaluation software 4.1.

| Kd [1] [nM] | BxPC3 cell proliferation (MTT assay), IC50 [2] [nM] | binding result [3] | binding result [4] | Kd [5] [nM] | koff [5] [s⁻¹] | kon [5] [M⁻¹ s⁻¹] | Kd [6] [nM] | Molecule |
| --- | --- | --- | --- | --- | --- | --- | --- | --- |
| 8 | – | – | – | – | – | – | – | anti-CEACAM6 mouse monoclonal antibody 9A6 (Santa Cruz Biotechnology) |
| – | 6500 | binds | binds | 4.7 | 0.0053 | 1.1e+06 | – | sdAb 2A3 (engineered, with c-myc and His tags) (VHH, FITC-labelled in the staining and flow cytometry assays, Llama VHH expressed in the E. coli periplasm and purified by IMAC; monomer by size exclusion; also called 2A3 sdAb; FITC-2A3) VHH: QVKLEESGGGLVQAGGSLRLSCRTSGRTNSVYTMGWFRQAPGKEREFVAQIMWGAGTNTHYADSVKGRFTISRDSAESTVYLQMNSLKPEDTAVYYCAANRGIPIAGRQYDYWGQGTQVTVSS |
| – | 8000 | – | – | – | – | – | 13 | 2A3-Fc (2A3 sdAb fused to mouse Fc2b fragment) (Fc fusion, FITC, Alexa Fluor 594 or 64Cu-DOTA label in some assays, Expressed in 293-6E cells and purified on Protein G; about 80 kDa, bivalent; also called 2A3-mFc; 2A3mFc; not shown: mouse Fc2b fragment (Fc of mouse IgG2b) from vector pTT5) QVKLEESGGGLVQAGGSLRLSCRTSGRTNSVYTMGWFRQAPGKEREFVAQIMWGAGTNTHYADSVKGRFTISRDSAESTVYLQMNSLKPEDTAVYYCAANRGIPIAGRQYDYWGQGTQVTVSS |
